# Source: the DeepSol protein solubility set
# Test: soluble on expression in E. coli; label from the status in PepcDB or PDB records
row,Sequence,soluble on expression in E. coli
1,MRNERAAKLVVIGGGTGLPVLLRGLKQHELDLTAIVTVADDGGSSGRLRDELHIPPPGDVRNVLAALSDVEPLIVELFQHRFQNGNGLSGHSLGNLILAALTSITGDFVKAIREMSKVLNVRGQVLPAANKSVVLHAEMEDGSIVSGESKIPSAGKKIKRVFLTPEDIEPLPETVDAIRRADLIVIGPGSLYTSILPNLLVPKIGQEVCKAKAKKVYICNIMTQAGETPHYTVSDHVEALHAHLGGPFLDAVIINSGAIPEAIRRRYEAERAEPVRDDSSGLSLQVIRDDIVTYEDGVIRHNTAKVAALLLGLLPHR,not soluble
2,MGSDKIHHHHHHMQVVLRIDEKDTRTLQQQVFHQIRALILEGRLRSGDPVPASRELSQQLGVSRNTVLIAYEHLLSEGYLESRANVGTFVSSALPEMSMSTLTSPANDQPSEPSGQSPAPACMPLLEHSVISPNRKKDTVDFWVGRSDGSAFPAREWRRILDTKLRHAKGQLSEYHDPRGLREFRQALADHIGPTRGVLAKPEDVVCVGGSQDGLALIARAFSRTFRTFIHEDPCYLGARAVFSNFSYDTVAVPVDRDGLRVDLLPETGRSLLYVTPSHQYPTGVTLSLERRLQLLQWAERTDSIVIEDDYDGDFRYEGTPLTALRGLDRAGRVIYLGTFSKSFGPAIRIGYLVSTAELSDAFAMWKGILSNGQPWLEQAAMADFITGGSFRRHLRRIRSTYMARRDLLARELTTRIPGTSIHGMRGGMHISARLPKGICAETLQKAAAEHRIAIYRARDCGAWLSPSNTDFDDLLVLGYAAVSDRNIRKAVDVLAHAAEQQSG,not soluble
3,APSYRVKRADIATCTEAAVVNAANARGTVGDGVCRAVAKKWPSAFKGAATPVGTIKTVMCGSYPVIHAVAPNFSATTEAEGDRELAAVYRAVAAEVNRLSLSSVAIPLLSTGVFSGGRDRLQQSLNHLFTAMDATDADVTIYCRDKSWEKKIQEAIDMRTAVELLNDDVELTTDLVRVHPDSSLVGRKGYSTTDGSLYSYFEGTKFNQAAIDMAEILTLWPRLQEANERICLYALGETMDNIGSKCPVNDSDSSTPPRTVPCLCRYAMTAERIARLRSHQVKSMVVCSSFPLPKYHVDGVQKVKCEKVLLFDPTVPSVVSPRKYAASTTDHSDRSLRGFDLDWTTDSSSTASDTMSLPSLQSCDIDSIYEPMAPIVVTADVHPEPAGIADLAADVHPEPADHVDLENPIPPPRPKRAAYLASRAAERPVPAPRKPTPAPRTAFRNKLPLTFGDFDEHEVDALASGITFGDFDDVLRLGRAGA,not soluble
4,MGSDKIHHHHHHMLDFNHQPSIAERINALIDSGLIADRDATPPRAYLGGSRLGHSCERALQFEFAGAPKDSGADFNGQTLRIFAIGHALEDVAIRWLRRAGFDIYTRKGNRPDGEQFGFSVAGGQVRGHVDGILADGPVIPGMGYPALWECKTMNAKNWRETVAKGVTVSKPVYAAQIALYQAYMEGTVPGISANPALFTAINKDTAELHHELVSFDGELAQRISDRAVRILQATDAGELLPRMSSDPDYFECRFCPWKTRCWA,not soluble
5,MTQHSRDTPQFYLTAPSPCPYLPGRHERKVFTHLVGNKAGELNDLLTHGGFRRSQSIAYRPACDQCRACVSVRVIANEFKPSRNQRKLLARNADIVGEQRNPVPTSEQYSVFRAYLDQRHRYGGMADMTVLDYAMMVEDSHVQTRMIEYRKRTPDTGITGRGGELIAAALTDVLGDGLSMVYSFYEPNEQHRSLGTFMILDHIARARRLGLPYVYLGYWIEGSKKMDYKGRYLPQQRLAPSGWLRIDASGEMQPEPQDLEHHHHHH,not soluble
6,MGSDKIHHHHHHMTSKLTEVSTPPQAAMPKSTLANEQENKVFIIGLPRTGTTSVSVALLEQGLTVAHQAFTKQAFMLADAVSDAPCFSDYQQLDKLFPNAKFVYLDRPLDKWLPSMQMLLGRMLVHLDKDKGRFHPVMKRSFNHCFDIWQVEDVFDEAHLTACYQRHQQQVMSYFAGRDDFISIDISVTGSLAKLLQFIDLAKPDTAEFRQLQYPQLQSQPQNFPQLNFPQLNFPQLNTGRNVASWDEYKHPNKISANASGPDKRKFFDYRL,not soluble
7,MSLNILILHRVRYVDVLYHQSIDHELHNVYYIGIEENLNEIPADLRCTKIVRPGVDAVHKEVLEQIENLDVCFDHVVSINEFELIEAALIREKLNIAGPKVADVEKVRNKIVMKHCVGAVNIRIPQYMSLSDFMNSERLAIPPSSQVILKPLDGASSVDVVKFDSQKVLEQALIDRTTGIVALDKETPERIENFEVEEFVSGPVLHIDGMIRNGQIEMIVVSQYINTLLDFANGYPAGSVQLETTEEMKTWALQILNAVDISLGAFHLEAIQTDTGPVFLEIAHRIGGARIAETLTLQTGIHPSILELGLLLDPDFKFELNYDTGYKYAWFIVPGHQLPGNYGLVSGHEFLYGKEEVVMLNQLTMQQPLVKAVTYKESEIPLAGLLKAKSAKELTDLIDRLFGQLQLISVDTPLPYSECMPQKKKHVLVIGNIRQPHKTLEAQGYAISWMYKKVPNFTHTTEDHNRCERILMYSNESAIQLISLARSIDQLQKIDSVVSFHDGAQLDALTIANALELPFSLSMGAIVNTRDKQLSRRILREKNLTEVQSAIAENEQDLHDFFKIYPQVNKVIVKPVAGTGSENVRSLESKELETANLDNVYPVLVEQFVEGREFSVEAFMQEGKCHIFAITEKFKDAQSFIETGHLVPARLSSDEHEKIAAFIAKVLPALGVVSGITHSEIMLGEKIELIETHTRVGGDRIFDLVQMTTGIDMYRLQALQSLGLPIGEDELTPKLNGKHACIKFKLNDHPGKKVIRVNGEEEIKNWSGVEDVSITHQAGEVLPQIVNSFDRSASVLVLCDSSEQALSIAEEAIQKLEFVVGEGHHHHHH,soluble
8,ITASGENRNAINDLLGAMCYDEETARTYQGYVAELDNPHTPETEEYGISSFVFKGDRPFDRQRLIAALRSTRGIVRSKGHCWISDRIDMVQVWHQAGPDLRIAPAGYWQSAGITPSNEIVVIGVNFDHAQAQQLLNDAMLSDSEVQQLLSTADAAKS,not soluble
9,SAQKVEAKGGKGGNQWDDGSDHDAVTKIQVAVGGMGIQYIQFDYVKNGQTEQTPLRGIKGSTIPTDPFVINHPEEHLVSIEIWYKPDGLIQGLRFISNKKTSRFIGYDRGTRSFLQVQDKKIIGFHGSAGDNLNSLGAYFAPLTIPLTPAKPLPALGSDDGTAWDDGAYVGVKKVYVGQAQDGISAVKFVYDKSPEEVTGEEHGKSTLLGFEEFVLDYPSEYIIAVEGTYDKIFGSDGSVITMLRFKTNKQTSPPFGLEAGTAFELKEEGHKIVGFHGRADALLHKIGVHVRPVSN,soluble
10,DKKIMVIVNTVDKAITLYEKLRDLSPCLIHSRFKIGDRDEKLRKECNIIIATQVIEVGVNISSEVMITEQAPITSIVQRVGRLLRDNKKDKGELYIWKSGNYYPYDKDEVENTIKELESKKNDISL,not soluble
11,MVSGGTFNAGVEKIRPGIYTNFKAAAAERTKAGERGTVALPLAASWGAAKEFVEINKEEDVEKKLGLSLAHQSFLLLRETLKLAKTVLVYRLNDGIKATATLATDVVVTAKYGGIVGNSITIKVDENVVDSSKKDVTTYLNEVAVDKQVVGTASELIDSNYVSFKTTSTSELQQSSGTTLVGGTDQPVTNLDYTQFLVSAEGEYFDTIAFPVSSSDVALKTSFVSFVKRMRDEQGVKIKGVVANMPADYEGIINVRNGVTLRDGTILEPHQVVAWVAGADASASMLKSNTFVKYDGAIDATPRLANDEAEEALQNGEFVLTFDARDKAVYVEQDLNSLTTFSKEKSSKFRKNKISRILDGINNDTRRNILDAIKERKDANTDIPADENGVQFILSMQTAYLNELQDSGAITNFDSTADITVSLNNNVDGFIVNQSIEPVDSGEKFYFTTEVKLEHHHHHH,soluble
12,MLLAHISDTHFRSRGEKLYGFIDVNAANADVVSQLNALRERPDAVVVSGDIVNCGRPEEYQVARQILGSLNYPLYLIPGNHDDKALFLEYLQPLCPQLGSDANNMRCAVDDFATRLLFIDSSRAGTSKGWLTDETISWLEAQLFEGGDKPATIFMHHPPLPLGNAQMDPIACENGHRLLALVERFPSLTRIFCGHNHSLTMTQYRQALISTLPGTVHQVPYCHEDTDPYYDLSPASCLMHRQVGEQWVSYQHSLAHYAGPWLYDENISCPTEER,soluble
13,MEHRYRTNLKKVFLSDSELNQLNINIDQSGCKSFSEYARRTLLDPGMNFITIDTNGYQDLVFELKRIGNNINQIARSVNQSQLISGEELQELKKGIGELIKEVDKEFNLQAQKLKEFHGHH,not soluble
14,MKKEANFDEVLFSLGQEVIQVLIRRGASLEDAQDAVSQTYTTIFSILPEITSENLRPWFFRVTFNYYITMYRKKKRERTFVANSHPVQSIEKMEGQELLLLIDSLKDEEQELVLLKYYYQLSYAEIALILELSVENVRKKLYRTRQKLKKELEE,not soluble
15,MNRPSGRAADQLRPIRITRHYTKHAEGSVLVEFGDTKVICTVSAESGVPRFLKGQGQGWLTAEYGMLPRSTGERNQREASRGKQGGRTLEIQRLIGRSLRAALDLSKLGENTLYIDCDVIQADGGTRTASITGATVALIDALAVLKKRGALKGNPLKQMVAAVSVGIYQGVPVLDLDYLEDSAAETDLNVVMTDAGGFIEVQGTAEGAPFRPAELNAMLELAQQGMQELFELQRAALAE,soluble
16,MGHHHHHHSHMACLNPVPKLYRSVIEDVIEGVRNLFAEEGIEEQVLKDLKQLWETKVLQSKATEDFFRNSIQSPLFTLQLPHSLHQTLQSSTASLVIPAGRTLPSFTTAELGTSNSSANFTFPGYPIHVPAGVTLQTVSGHLYKVNVPIMVTETSGRAGILQHPIQQVFQQLGQPSVIQTSVPQLNPWSLQATTEKSQRIETVLQQPAILPSGPVDRKHLENATSDILVSPGNEHKIVPEALLCHQESSHYISLPGVVFSPQVSQTNSD,not soluble
17,MNVFNPAQFRAQFPALQDAGVYLDSAATALKPEAVVEATQQFYSLSAGNVHRSQFAEAQRLTARYEAAREKVAQLLNAPDDKTIVWTRGTTESINMVAQCYARPRLQPGDEIIVSVAEHHANLVPWLMVAQQTGAKVVKLPLNAQRLPDVDLLPELITPRSRILALGQMSNVTGGCPDLARAITFAHSAGMVVMVDGAQGAVHFPADVQQLDIDFYAFSGHKLYGPTGIGVLYGKSELLEAMSPWLGGGKMVHEVSFDGFTTQSAPWKLEAGTPNVAGVIGLSAALEWLADYDINQAESWSRSLATLAEDALAKRPGFRSFRCQDSSLLAFDFAGVHHSDMVTLLAEYGIALRAGQHCAQPLLAELGVTGTLRASFAPYNTKSDVDALVNAVDRALELLVD,soluble
18,MGSDKIHHHHHHMTQSSLDPATVELTADQQQAAEAFSSWLDDANHGNPFVLSGFAGSGKTFLSMRLLRQVEDAGLCWTVVAPTHKAVGVLRQALDLEGLRPTWYPSTIHRLLRLKLKRQGDLELCESTEQTAQSLEQLGLVLIDESSMIDSTLLGLALQCAHPFRTRLVFVGDPAQLPPIGEAQSPVFSMHRACTATLQQVVRHQGPVLRLASRLRDGSLPCQSPPCFPLIEDELGRVGCMDQNNWLKRAQAALQSAAIQDNPDAARILCYTNRSLEQLVPHARRAIHGDMADQLPVLPGEVLIARKAVMAPASRSGAETGEEPDMVLGSNREVVVRDVTPERCDLAEFGLEGQSDWSVPVVDTLTAKVRAGELDLELRLQPPVGSEGRRLLDTTLQRLRVEAKAAGKSDGRSLWRRFFLLRDAFASLGPAAVLTVHRSQGSSFGEVFVAGDVFWPQDLSLRRQLVYVAVSRARTGVWLVGKTGAAAQSRWLDQLRSQSSDR,not soluble
19,MNAACPDCGLKFQCLCSAVPSFHAPFQLSLLTHDNEWQRETNTGRWLVKSMAECQAYTWSRVAANTELQARLTQPNARSFLVYPSEESVELTDALRSLREDEIAHFIVLDATWQEARKMERKSPWLADVPRVHLTTDHVSAYRLRRNQQPGNLCTLEVGLMLLRHFNAEASAEALEQFYHYSMNAFKADKSGHRWIERLEHHHHHH,not soluble
